Numbering of substitutions follows the chain as printed. Names and notes keep the numbering of the source. Where no end group is shown, it is not given here.
Tests used:
Gαolf (human) = Gαolf (human) (UniProt P38405)
[1] = target: purified Ric-8B (peptide-binding thermal shift assay) (mouse) (UniProt Q80XE1); experiment: differential scanning fluorimetry

Sequence of Gαolf (human) (P38405 whole entry): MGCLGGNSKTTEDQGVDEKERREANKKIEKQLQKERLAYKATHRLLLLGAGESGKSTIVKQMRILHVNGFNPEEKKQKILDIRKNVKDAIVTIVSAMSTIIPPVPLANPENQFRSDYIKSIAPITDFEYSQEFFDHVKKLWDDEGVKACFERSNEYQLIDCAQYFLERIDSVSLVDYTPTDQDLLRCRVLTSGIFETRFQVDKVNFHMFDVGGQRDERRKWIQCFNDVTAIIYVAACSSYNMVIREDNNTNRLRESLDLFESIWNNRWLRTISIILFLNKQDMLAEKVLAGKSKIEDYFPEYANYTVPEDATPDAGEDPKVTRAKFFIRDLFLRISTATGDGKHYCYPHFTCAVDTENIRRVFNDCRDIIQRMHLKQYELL

B1: Ric-8B F126A (natural protein)
chain: MDEERALYIVRAGEAGAIERVLRDYSDKHRATFKFESADEDKRKKLCEGIFKVLVKEVPTTCQVSCLEVLRILSRDKKILVPVTTKENMQILLRLAKLHESDDSLEKVSEFPVIVESLKCLCNIVANSQMAQQLSLELNLAAKLCNLLRKCKDRKFINDIKCFDLRLLFVLSLLHTDIRSQLRYELQGLPLLTQILESAFSIKWTDEYESAIDHNGPPLSPQETDCAIEALKALFNVTVDSWKVHKESDSHQFRVMAAVLRHCLLIVGPTEDKTEELHSNAVNLLSNVPVSCLDVLICPLTHEETAQEAATLDELPSDKTTEKDTALKNSTMVYNGMNMEAIHVLLNFMEKRIDKGSSYREGLTPVLSLLTECSRAHRNIRKFLKDQVLPPLRDVTNRPEVGSTVRNKLVRLMTHVDLGVKQIAAEFLFVLCKERVDSLLKYTGYGNAAGLLAARGLLAGGRGDNWYSEDEDTDTEEYKNAKP
Gαolf (human)
  folding of the Gαolf-RLuc sensor (luminescence) in RIC-8B knockout HEK293T cells: 20 % reduction

B2: Ric-8B R166A (natural protein)
chain: B1 chain with A126F, R166A
Gαolf (human)
  folding of the Gαolf-RLuc sensor (luminescence) in RIC-8B knockout HEK293T cells: 59 % decrease

## NDCRDIIQRMHLRQLMLQ-NH2 [Gαs/Gα13 C-term chimera amidated peptide]
[1]
  maximal thermal shift (ΔTm): 4.8 °C
